Literature values, collected in publication PMC2868910.
pKd: −log10 of the molar value.

Molecular target: thrombomodulin (Homo sapiens) (UniProt P07204)

pKd: 9.30
Substance: thrombin (from UniProt P00734)
